Molecular target: T1, CasEnd-18 (synthetic construct)
T1 chain: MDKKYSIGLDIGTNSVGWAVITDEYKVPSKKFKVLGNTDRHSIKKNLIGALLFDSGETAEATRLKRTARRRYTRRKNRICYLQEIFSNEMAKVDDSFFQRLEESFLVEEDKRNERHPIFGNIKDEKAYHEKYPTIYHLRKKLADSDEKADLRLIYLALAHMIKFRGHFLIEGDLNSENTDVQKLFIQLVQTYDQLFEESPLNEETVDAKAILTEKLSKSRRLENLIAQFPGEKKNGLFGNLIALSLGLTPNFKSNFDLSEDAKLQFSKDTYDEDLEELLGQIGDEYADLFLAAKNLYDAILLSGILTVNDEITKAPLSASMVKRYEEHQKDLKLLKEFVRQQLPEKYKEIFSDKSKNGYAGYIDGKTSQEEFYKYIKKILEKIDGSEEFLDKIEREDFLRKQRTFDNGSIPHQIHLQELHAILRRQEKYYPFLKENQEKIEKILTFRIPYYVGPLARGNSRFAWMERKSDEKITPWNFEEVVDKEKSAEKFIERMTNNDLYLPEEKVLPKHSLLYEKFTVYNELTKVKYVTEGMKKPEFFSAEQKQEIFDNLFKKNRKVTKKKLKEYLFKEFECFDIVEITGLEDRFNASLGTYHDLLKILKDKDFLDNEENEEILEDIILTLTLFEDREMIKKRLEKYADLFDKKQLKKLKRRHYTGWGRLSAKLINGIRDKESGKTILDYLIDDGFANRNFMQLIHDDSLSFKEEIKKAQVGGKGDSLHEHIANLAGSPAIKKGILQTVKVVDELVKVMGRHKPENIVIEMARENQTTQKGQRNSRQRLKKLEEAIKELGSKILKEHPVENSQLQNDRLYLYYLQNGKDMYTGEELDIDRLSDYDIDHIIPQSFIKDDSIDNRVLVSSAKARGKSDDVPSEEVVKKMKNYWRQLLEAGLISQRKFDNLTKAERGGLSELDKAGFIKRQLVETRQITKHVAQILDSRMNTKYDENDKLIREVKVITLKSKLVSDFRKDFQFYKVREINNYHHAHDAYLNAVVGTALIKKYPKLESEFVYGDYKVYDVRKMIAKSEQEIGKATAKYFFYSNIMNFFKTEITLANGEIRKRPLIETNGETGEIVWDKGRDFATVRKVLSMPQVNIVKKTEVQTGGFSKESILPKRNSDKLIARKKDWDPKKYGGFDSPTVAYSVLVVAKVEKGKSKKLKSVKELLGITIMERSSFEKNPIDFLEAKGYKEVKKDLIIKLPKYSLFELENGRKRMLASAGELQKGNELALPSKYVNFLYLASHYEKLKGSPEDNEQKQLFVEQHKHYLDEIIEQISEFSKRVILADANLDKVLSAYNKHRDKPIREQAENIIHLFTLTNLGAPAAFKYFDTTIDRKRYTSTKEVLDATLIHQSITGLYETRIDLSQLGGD
Assay: cell_activity; +++; HEK293T; PAM not stated
Method in brief: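 BFP-to-GFP conversion via reverse transcriptase fusion with each Cas endonuclease plus template RNA: 200 ng of each plasmid nucleofected into 250,000 BFP-expressing HEK293T cells (program DS-150). Percent GFP+ cells by flow cytometry at day 4 measured editing.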

B1: BFP-to-GFP template RNA ; BFP reporter protospacer (ssRNA ; dsDNA)
RNA: GCCGAAGCACUGCACGCCGUGUUUUAGAGCUAGAAAUAGCAAGUUAAAAUAAGGCUAGUCCGUUAUCAACUUGAAAAAGUGGCACCGAGUCGGUGCACCCUGACGUACGGCGUGCAGUGCUU
DNA 1: GCCGAAGCACTGCACGCCGT
DNA 2: ACGGCGTGCAGTGCTTCGGC
  activity: ≥ 100 % of reference
